Patent publication US7208301B2, “Method for producing 6-0-α-D-glucopyranosyl-D-sorbitol” (Südzucker Aktiengesellschaft Mannheim/Ochsenfurt, priority 1999, dated 2007)

Assay: Storage stability of purified SDH
Format: physicochemical
Description: In another preferred embodiment the temperature of the aqueous reaction solution is 20° C. to 40° C., especially 25° C., in the enzymatic conversion. At temperatures of 25° C. the purified SDH has stability of about a week. Thus, temperatures in this range are well-suited for conducting long-term enzyme-catalyzed processes.
The purified SDH can be stored for about 8 months at −30° C. and the SDH is stable for about 30 days at +4° C.

B1: SDH: sorbitol dehydrogenase of Gluconobacter suboxidans DSM 2003, 262 amino acids (SEQ ID No. 1), purified per Example 1 (protein)
chain: MSKKFNGKVCLVTGAGGNIGLATALRLAEEGTAIALLDMNREALEKAEASVREKGVEARSYVCDVTSEEAVIGTVDSVVRDFGKIDFLFNNAGYQGAFAPVQDYPSDDFARVLTINVTGAFHVLKAVSRQMITQNYGRIVNTASMAGVKGPPNMAAYGASKGAIIALTETAALDLAPYNIRVNAISPGYMGPGFMWERQVELQAKVGSQYFSTDPKVVAQQMIGSVPMRRYGDINEIPGVVAFLLGDDSSFMTGVNLPIAGG
modifications: Gluconobacter suboxydans
- stability of purified SDH (at 25° C.): about a week
- stability of SDH (at +4° C.): about 30 days
- storage time of purified SDH (at −30° C.): about 8 months
